Measured values reported in article PMC4337721, “Noncanonical binding of BiP ATPase domain to Ire1 and Perk is dissociated by unfolded protein CH1 to initiate ER stress signaling” (eLife, 2015).
Values joined by “and” are separate entries in the source; they are usually repeats but may differ in a detail not shown here. Equal entries are not always repeated.

B1: unfolded protein CH1 (immunoglobulin constant heavy chain domain) (domain or fragment)
chain: not shown
notes: immunoglobulin constant heavy chain domain CH1, intrinsically unfolded without CL; also called CH1 substrate; source: expressed as previously described (Marcinowski et al., 2011)
B2: Perk luminal domain, complete (region I–V, residues 54–509) (domain or fragment, human, UniProt Q9NZJ5 54-509, looked up)
chain: TSATRVPAAGAVAAAEVTVEDAEALPAAAGEQEPRGPEPDDETELRPRGRSLVIISTLDGRIAALDPENHGKKQWDLDVGSGSLVSSSLSKPEVFGNKMIIPSLDGALFQWDQDRESMETVPFTVESLLESSYKFGDDVVLVGGKSLTTYGLSAYSGKVRYICSALGCRQWDSDEMEQEEDILLLQRTQKTVRAVGPRSGNEKWNFSVGHFELRYIPDMETRAGFIESTFKPNENTEESKIISDVEEQEAAIMDIVIKVSVADWKVMAFSKKGGHLEWEYQFCTPIASAWLLKDGKVIPISLFDDTSYTSNDDVLEDEEDIVEAARGATENSVYLGMYRGQLYLQSSVRISEKFPSSPKALESVTNENAIIPLPTIKWKPLIHSPSRTPVLVGSDEFDKCLSNDKFSHEEYSNGALSILQYPYDNGYYLPYYKRERNKRSTQITVRFLDNPHYNKN
notes: Perk, human, luminal domain regions I-V, residues 54-509; see recheck on the SEC MALS mass; also called Perk I–V; Perk LD; source: E. coli BL21 (DE3), purified (Co2+-NTA, anion exchange, SEC); not shown: His6, N-terminal, cleaved
B3: Perk luminal domain region I–IV (residues 54–403) (domain or fragment, human, UniProt Q9NZJ5 54-403, looked up)
chain: TSATRVPAAGAVAAAEVTVEDAEALPAAAGEQEPRGPEPDDETELRPRGRSLVIISTLDGRIAALDPENHGKKQWDLDVGSGSLVSSSLSKPEVFGNKMIIPSLDGALFQWDQDRESMETVPFTVESLLESSYKFGDDVVLVGGKSLTTYGLSAYSGKVRYICSALGCRQWDSDEMEQEEDILLLQRTQKTVRAVGPRSGNEKWNFSVGHFELRYIPDMETRAGFIESTFKPNENTEESKIISDVEEQEAAIMDIVIKVSVADWKVMAFSKKGGHLEWEYQFCTPIASAWLLKDGKVIPISLFDDTSYTSNDDVLEDEEDIVEAARGATENSVYLGMYRGQLYLQSSVRI
notes: Perk, human, luminal domain regions I-IV, residues 54-403; also called Perk I–IV; source: E. coli BL21 (DE3), purified (Co2+-NTA, anion exchange, SEC); not shown: His6, N-terminal, cleaved
B4: His6-tagged BiP ATPase domain (residues 28–405) (domain or fragment)
chain: not shown
notes: BiP, human, ATPase domain, residues 28-405; also called His6-tagged BiP ATPase domain protein; source: E. coli BL21 (DE3), purified (Co2+-NTA, anion exchange, SEC); not shown: His6, N-terminal, kept
B5: BiP ATPase domain (residues 28–405), His6-tag removed (domain or fragment)
chain: not shown
notes: BiP, human, ATPase domain, residues 28-405; also called BiP's ATPase domain; source: E. coli BL21 (DE3), purified (Co2+-NTA, anion exchange, SEC); not shown: His6, N-terminal, cleaved
B6: Ire1 luminal domain region II–IV (residues 32–390) (domain or fragment, human, UniProt O75460 32-390, looked up)
chain: LLFVSTLDGSLHAVSKRTGSIKWTLKEDPVLQVPTHVEEPAFLPDPNDGSLYTLGSKNNEGLTKLPFTIPELVQASPCRSSDGILYMGKKQDIWYVIDLLTGEKQQTLSSAFADSLCPSTSLLYLGRTEYTITMYDTKTRELRWNATYFDYAASLPEDDVDYKMSHFVSNGDGLVVTVDSESGDVLWIQNYASPVVAFYVWQREGLRKVMHINVAVETLRYLTFMSGEVGRITKWKYPFPKETEAKSKLTPTLYVGKYSTSLYASPSMVHEGVAVVPRGSTLPLLEGPQTDGVTIGDKGECVITPSTDVKFDPGLKSKNKLNYLRNYWLLIGHHETPLSASTKMLERFPNNLPKHRENV
notes: Ire1, human, luminal domain regions II-IV, residues 32-390; With cross linker it forms dimer and tetramer species; also called Ire1 II–IV; Ire1 LD for cross-link experiment; source: E. coli BL21 (DE3), purified (Co2+-NTA, anion exchange, SEC); not shown: His6, N-terminal, cleaved
B7: Ire1 luminal domain, complete (region I–V, residues 24–440) (domain or fragment, human, UniProt O75460 24-440, looked up)
chain: STVTLPETLLFVSTLDGSLHAVSKRTGSIKWTLKEDPVLQVPTHVEEPAFLPDPNDGSLYTLGSKNNEGLTKLPFTIPELVQASPCRSSDGILYMGKKQDIWYVIDLLTGEKQQTLSSAFADSLCPSTSLLYLGRTEYTITMYDTKTRELRWNATYFDYAASLPEDDVDYKMSHFVSNGDGLVVTVDSESGDVLWIQNYASPVVAFYVWQREGLRKVMHINVAVETLRYLTFMSGEVGRITKWKYPFPKETEAKSKLTPTLYVGKYSTSLYASPSMVHEGVAVVPRGSTLPLLEGPQTDGVTIGDKGECVITPSTDVKFDPGLKSKNKLNYLRNYWLLIGHHETPLSASTKMLERFPNNLPKHRENVIPADSEKKSFEEVINLVDQTSENAPTTVSRDVEEKPAHAPARPEAPVDSM
notes: Ire1, human, luminal domain regions I-V, residues 24-440; also called Ire1 I–V; Ire1 LD; source: E. coli BL21 (DE3), purified (Co2+-NTA, anion exchange, SEC); not shown: His6, N-terminal, cleaved
B8: Ire1 luminal domain region I–IV (residues 24–390) (domain or fragment, human, UniProt O75460 24-390, looked up)
chain: STVTLPETLLFVSTLDGSLHAVSKRTGSIKWTLKEDPVLQVPTHVEEPAFLPDPNDGSLYTLGSKNNEGLTKLPFTIPELVQASPCRSSDGILYMGKKQDIWYVIDLLTGEKQQTLSSAFADSLCPSTSLLYLGRTEYTITMYDTKTRELRWNATYFDYAASLPEDDVDYKMSHFVSNGDGLVVTVDSESGDVLWIQNYASPVVAFYVWQREGLRKVMHINVAVETLRYLTFMSGEVGRITKWKYPFPKETEAKSKLTPTLYVGKYSTSLYASPSMVHEGVAVVPRGSTLPLLEGPQTDGVTIGDKGECVITPSTDVKFDPGLKSKNKLNYLRNYWLLIGHHETPLSASTKMLERFPNNLPKHRENV
notes: Ire1, human, luminal domain regions I-IV, residues 24-390; also called Ire1 I–IV; source: E. coli BL21 (DE3), purified (Co2+-NTA, anion exchange, SEC); not shown: His6, N-terminal, cleaved

How the values were obtained:
[1] = target: T1, full-length BiP (BiP FL, residues 28–654), His6-tag removed (human, UniProt P11021 28-654); assay: MST; Monolith NT.115; buffer B (50 mM HEPES pH 7.5, 75 mM NaCl, 10% glycerol, 1 mM TCEP), no nucleotide; one partner labelled (Red-NHS) at 50 nM, sixteen twofold dilutions of the unlabelled partner (which was labelled is not told); 25°C; three independent experiments averaged; details: both partners purified
T1 construct: BiP (ER Hsp70 chaperone), human, residues 28-654; In MST one partner carried the Red-NHS label; also called ER Hsp70 chaperone; source: E. coli BL21 (DE3), purified (Co2+-NTA, anion exchange, SEC); not shown: His6, N-terminal, cleaved
T1 sequence (P11021 28-654): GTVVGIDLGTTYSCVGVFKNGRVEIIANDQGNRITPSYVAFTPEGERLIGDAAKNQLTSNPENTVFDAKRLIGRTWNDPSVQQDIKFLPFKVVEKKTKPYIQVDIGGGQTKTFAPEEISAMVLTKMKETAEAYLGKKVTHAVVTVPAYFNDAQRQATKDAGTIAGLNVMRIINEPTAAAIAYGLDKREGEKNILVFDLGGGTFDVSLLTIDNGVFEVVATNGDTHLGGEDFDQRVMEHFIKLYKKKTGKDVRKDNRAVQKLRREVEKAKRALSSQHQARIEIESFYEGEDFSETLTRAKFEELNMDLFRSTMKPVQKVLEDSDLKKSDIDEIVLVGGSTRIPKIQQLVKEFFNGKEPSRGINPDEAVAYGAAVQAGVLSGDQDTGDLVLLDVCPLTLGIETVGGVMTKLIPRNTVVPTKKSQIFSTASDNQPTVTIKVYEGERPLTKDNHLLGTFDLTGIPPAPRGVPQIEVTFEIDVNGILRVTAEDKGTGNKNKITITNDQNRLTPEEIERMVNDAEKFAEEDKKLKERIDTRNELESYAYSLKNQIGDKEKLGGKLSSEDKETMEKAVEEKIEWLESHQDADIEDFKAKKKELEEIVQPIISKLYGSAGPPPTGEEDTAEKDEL

[2] = target: T2, BiP substrate binding domain (residues 422–654), His6-tag removed (human, UniProt P11021 422-654); assay: as above; details: both partners purified
T2 construct: also called BiP SBD; source: E. coli BL21 (DE3), purified (Co2+-NTA, anion exchange, SEC); not shown: His6, N-terminal, cleaved
T2 sequence (P11021 422-654): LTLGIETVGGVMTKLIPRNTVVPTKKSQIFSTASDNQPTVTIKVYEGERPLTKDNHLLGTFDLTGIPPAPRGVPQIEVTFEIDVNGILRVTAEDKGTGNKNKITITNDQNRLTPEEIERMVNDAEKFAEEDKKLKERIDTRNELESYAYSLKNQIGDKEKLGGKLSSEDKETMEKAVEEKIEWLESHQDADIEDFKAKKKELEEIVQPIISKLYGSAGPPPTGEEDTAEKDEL

SEC-MALS = target: the molecule itself; assay: SEC-MALS
[3] = target: T3, ΔEspP, yeast Ire1-specific unfolded peptide mimic; assay: ITC; details: both partners purified
T3 construct: also called unfolded protein peptide mimic; source: bought: AltaBiosciences

[4] = target: B5; assay: MST; Monolith NT.115; buffer B (50 mM HEPES pH 7.5, 75 mM NaCl, 10% glycerol, 1 mM TCEP), no nucleotide; one partner labelled (Red-NHS) at 50 nM, sixteen twofold dilutions of the unlabelled partner (which was labelled is not told); 25°C; three independent experiments averaged; details: both partners purified
[5] = target: B6; assay: cross-linking; EGS, 50-fold molar excess, 1 hr; proteins at 50 μM in 50 mM Hepes pH 8.0, 50 mM NaCl, 5% glycerol, 5 mM DTT; alone or in 1:1 molar mixture; SDS-PAGE and anti-His6 blot; details: both partners purified
[6] = target: B7; assay: MST; Monolith NT.115; buffer B (50 mM HEPES pH 7.5, 75 mM NaCl, 10% glycerol, 1 mM TCEP), no nucleotide; one partner labelled (Red-NHS) at 50 nM, sixteen twofold dilutions of the unlabelled partner (which was labelled is not told); 25°C; three independent experiments averaged; details: both partners purified
[7] = target: B2; assay: as above; details: both partners purified
[8] = target: the molecule itself; assay: cross-linking; EGS, 50-fold molar excess, 1 hr; proteins at 50 μM in 50 mM Hepes pH 8.0, 50 mM NaCl, 5% glycerol, 5 mM DTT; alone or in 1:1 molar mixture; SDS-PAGE and anti-His6 blot

## B1
[1]
  Kd: 8.7 µM
[2]
  Kd: 5.1 µM

## B2
SEC-MALS
  stoichiometry N: 2
[3]
  Kd: 9.3 µM
[1]
  Kd: 1.92 µM

## B3
[4]
  binding result: binds

## B4
[5]
  stoichiometry N: 1 1:1 and 2 2:1 (which of the two stands twice is not said)

## B5
[6]
  Kd: 1.97 µM
[7]
  Kd: 2.05 µM

## B6
[8]
  stoichiometry N: 2 and 4
[4]
  binding result: binds

## B7
SEC-MALS
  stoichiometry N: 2
[3]
  Kd: 6.4 µM
[1]
  Kd: 1.33 µM

## B8
[4]
  binding result: binds
